Consider 21 substances from patent US20220177587A1, “METHODS AND USES OF VARIANT CD80 FUSION PROTEINS AND RELATED CONSTRUCTS” (Alpine Immune Sciences, Inc., priority 2018, published 2022).

The target in test [1] is PD-L1 (human) (UniProt Q9NZQ7). Briefly: flow cytometry, CHO cells stably expressing PD-L1.
Target sequence in this assay (Q9NZQ7 19-290): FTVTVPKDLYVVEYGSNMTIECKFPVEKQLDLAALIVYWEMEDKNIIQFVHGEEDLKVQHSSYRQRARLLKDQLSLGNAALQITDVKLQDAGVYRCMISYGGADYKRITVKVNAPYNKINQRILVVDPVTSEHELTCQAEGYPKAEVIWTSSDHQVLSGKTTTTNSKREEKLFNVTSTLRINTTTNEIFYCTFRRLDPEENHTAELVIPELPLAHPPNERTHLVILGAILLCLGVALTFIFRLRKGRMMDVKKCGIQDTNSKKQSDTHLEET
Test [2] concerns the target human CTLA-4 (human) (UniProt P16410). Description: flow cytometry, CHO cells stably expressing CTLA4.
In test [3] the target is PD-L1 (human) (UniProt Q9NZQ7). Description: flow cytometry, Expi293F cells transfected with PD-L1.
Test [4] addresses CD28, endogenously expressed on Jurkat/IL2 reporter cells (human) (UniProt P10747). Description: flow cytometry on Jurkat/IL2 reporter cells (endogenous CD28), 33.3 nM Fc fusion, PE anti-human Fc.
Test [5] addresses human PD-L1 (huPD-L1), on stably transduced CHO cells (human) (UniProt Q9NZQ7). Description: flow cytometry on CHO cells stably expressing huPD-L1, 33.3 nM Fc fusion, PE anti-human Fc.
Test [6] deals with PD-L1 (human) (UniProt Q9NZQ7). Briefly: flow cytometry, CHO cells stably expressing PD-L1. This is another data set of the same source.
Target sequence in this assay (Q9NZQ7 19-290): as above
Test [7] concerns the target PD-L1 (human) (UniProt Q9NZQ7). Description: flow cytometry, MFI on PD-L1 cells over MFI on CD28 cells.
Target sequence in this assay (Q9NZQ7 19-290): as above
The target in test [8] is human CTLA-4 (human) (UniProt P16410). Briefly: flow cytometry, CHO cells stably expressing CTLA4. The source holds these as a separate data set.
Chain of human CTLA-4 (human) (P16410 36-223): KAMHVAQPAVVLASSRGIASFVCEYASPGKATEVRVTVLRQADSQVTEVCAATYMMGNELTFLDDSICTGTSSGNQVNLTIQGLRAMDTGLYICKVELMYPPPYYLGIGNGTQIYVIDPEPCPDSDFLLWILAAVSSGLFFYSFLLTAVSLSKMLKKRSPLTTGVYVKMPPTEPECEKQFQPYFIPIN
Test [9] addresses CD28 (human) (UniProt P10747). Briefly: flow cytometry, Jurkat cells (CD28).
The target of test [10] is human CTLA-4 (huCTLA4), on stably transduced CHO cells (human) (UniProt P16410). Description: flow cytometry on CHO cells stably expressing huCTLA4, 33.3 nM Fc fusion, PE anti-human Fc.
Chain of human CTLA-4 (huCTLA4), on stably transduced CHO cells (human) (P16410 36-223): as above
In test [11] the target is PD-L1 (human) (UniProt Q9NZQ7). Briefly: flow cytometry, CHO cells expressing huPD-L1.
Target sequence in this assay (Q9NZQ7 19-290): as the sequence (Q9NZQ7 19-290) above
Test [12] addresses human CTLA-4 (human) (UniProt P16410). Description: flow cytometry, CHO cells expressing huCTLA4.

Consider “CD80 IgV-Fc H18Y/E35D/D46E/M47I/V68M/R94L (Fc fusion)”, for which the results for the MFI at 33.3 nM in test [1] and in [2] were 2080 MFI and 19200 MFI, respectively.
CD80 L70Q/A91G/N144D ECD-Fc (Fc fusion) gave an MFI in test [3] of 6 MFI.
Turning to “CD80 Y31H/T41G/M43L/L70Q/A91G/I118V/T120S/I126V/T130A ECD-Fc (Fc fusion)”, in test [3], the MFI is 6 MFI.
Same read-out and setting: then WT CD80 ECD-Fc (Example 25) (Fc fusion), with 70 MFI.
Turning to WT CD80 ECD-Fc H22.6 (Fc fusion), the MFI at 33.3 nM came out at 43 MFI in test [4] and 46.3 MFI in test [5].
Regarding “variant CD80 IgV-Fc A26E/E35D/M47L/V68M/A71G/D90G (Fc fusion)”, the Fold change to WT CD80 is 693 fold in test [6], 16 fold in test [8] and 50.4 fold in [9]. The values for the MFI at 33.3 nM in [6], in [8] and in test [9] were 30200 MFI, 21700 MFI and 2210 MFI, respectively. Moreover, in [7], the Ratio of PDL1:CD28 worked out at 13.7.
On to “variant CD80 IgV-Fc E35D/D46E/A91G (Fc fusion)”, for which the MFI at 33.3 nM came out at 3450 MFI in test [4], 2820 MFI in test [5] and 32200 MFI in test [10].
In test [11], “variant CD80 IgV-Fc E35D/M38T/D46E/M47V/N48S (Fc fusion)” returned an MFI at 33.3 nM of 19400 MFI.
“variant CD80 IgV-Fc E35D/M38T/M43V/M47V/N48R/L85Q (Fc fusion)”: the MFI at 33.3 nM in [11] was found to be 21800 MFI; in test [12] it was 204000 MFI.
For “variant CD80 IgV-Fc E35D/M43I/D46E/A71G/L85M (Fc fusion)”, the MFI at 33.3 nM is 7140 MFI in test [5] and 26900 MFI in [10].
The corresponding values for “variant CD80 IgV-Fc E35D/M43I/M47L/L85M (Fc fusion)” are 4880 MFI and 24600 MFI.
Take “variant CD80 IgV-Fc E35D/M43I/M47V/K89N (Fc fusion)”: the MFI at 33.3 nM was 19200 MFI in [11] and 278000 MFI in test [12].
For the substance “variant CD80 IgV-Fc E35D/M47I/N48K/I61F (Fc fusion)”, the MFI at 33.3 nM in test [4] is 816 MFI; in test [5], 5630 MFI; in [10], 25900 MFI.
As for “variant CD80 IgV-Fc E35D/M47L/A71G (Fc fusion)”, the MFI at 33.3 nM was found to be 6640 MFI in [5] and 20600 MFI in [10].
With “variant CD80 IgV-Fc E35D/M47V/I61V/L85M (Fc fusion)”, the results for the MFI at 33.3 nM in [4], in test [5] and in [10] were 274 MFI, 3050 MFI and 28800 MFI, respectively.
For “variant CD80 IgV-Fc E35D/M47V/L85M/R94Q (Fc fusion)”, the MFI at 33.3 nM amounted to 23.7 MFI in [4] and 23300 MFI in [10].
In the case of “variant CD80 IgV-Fc E35D/M47V/N48K/L85M (Fc fusion)”, the MFI at 33.3 nM in test [4] is 413 MFI; in test [5], 5660 MFI.
Take “variant CD80 IgV-Fc E35D/M47V/T62A/A71D/K93E (Fc fusion)”: the MFI at 33.3 nM in test [11] is 693 MFI; in [12] it was 226000 MFI.
Turning to “variant CD80 IgV-Fc E35D/M47V/T62S/L85Q (Fc fusion)”, the MFI at 33.3 nM in test [4] came to 99.4 MFI; in [10] it was 31200 MFI.
For the substance “variant CD80 IgV-Fc E35D/N48K/L72V (Fc fusion)”, the MFI at 33.3 nM in test [4] is 582 MFI; in test [5] it was 3030 MFI.
On to “variant CD80 IgV-Fc H18Y/A26E/E35D/V68M/D90G (Fc fusion)”, for which the Fold change to WT CD80 in test [6] was found to be 532 fold; in test [8], 14.2 fold; in [9] it was 58.9 fold. In addition, the MFI at 33.3 nM in test [6] was 23200 MFI; in test [8] it was 19300 MFI; in test [9], 2580 MFI. Further, the Ratio of PDL1:CD28 in test [7] was 9.
